Experimental data: US20160003835, “APTAMERS AND USES THEREOF” (CARIS LIFE SCIENCES SWITZERLAND HOLDINGS S.A.R.L., published 2016)

What was measured:
EpCAM [1] = biological target: T1, EpCAM (UniProt P16422 P16422:24-265); experiment: bead fluorescence assay, anti-His beads; improved by 1 mM MgCl2 in 25 mM HEPES; lower affinity than Aptamer 4; conditions: tags: His tag; label: biotin / SA-PE
T1 sequence: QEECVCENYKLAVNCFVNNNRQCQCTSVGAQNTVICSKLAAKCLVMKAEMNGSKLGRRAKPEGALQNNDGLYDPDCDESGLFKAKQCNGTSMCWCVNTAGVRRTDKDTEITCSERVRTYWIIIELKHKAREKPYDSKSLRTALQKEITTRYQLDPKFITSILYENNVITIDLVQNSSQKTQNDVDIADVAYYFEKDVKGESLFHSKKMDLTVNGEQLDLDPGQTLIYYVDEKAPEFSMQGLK
Experimental: Purified CAR003 aptamer was tested for binding to recombinant EPCAM protein with a polyhistidine tag (“His tagged”) using the following internally developed assay. Anti-His tag conjugated beads were mixed with EPCAM-His tagged protein. The aptamer to be tested was labeled with streptavidin-phycoerythrin (SA-PE). The EpCAM-beads and SA-PE labeled aptamers were mixed. Binding was determined as median flourescent value in a bead assay as described herein. MFI values (FIG. 20E-F) increase with increased binding of the SA-PE labeled aptamer to the recombinant EpCAM. FIGS. 20E-F illustrate binding of CAR003 to EPCAM protein in 25 mM HEPES with PBS-BN (PBS, 1% BSA, 0.05% Azide, pH 7.4) (FIG. 20E) or in 25 mM HEPES with 1 mM MgCl₂ (FIG. 20F). EPCAM aptamer Aptamer 4 (see above) was used for comparison. As shown in the figures, CAR003 pool 3 more efficiently binds its target in the presence of MgCl₂ (FIG. 20F) than in the presence of BSA (FIG. 20E).
CAR003 affinity to EpCAM in the bead assay environment was assessed in the same assay as above with aptamer titrated across a constant input of antigen. FIG. 20I illustrates titration of aptamers against EPCAM recombinant protein (constant input 5 μg).

EpCAM [2] = biological target: T1, EpCAM; experiment: SPR; immobilized biotinylated aptamer, HBS-EP+ buffer, global fit; conditions: label: biotin
PSMA (FOLH1/NAALADase I) = PSMA (FOLH1/NAALADase I) (UniProt Q04609 Q04609:44-750); experiment: ELONA; ELISA against recombinant PSMA, values only in figure; conditions: label: biotin
EpCAM [3] = biological target: T1, EpCAM; experiment: SPR; immobilized biotinylated aptamer, HBS-EP+ buffer, global fit; conditions: label: biotin; remark: listed apart in the source
Experimental: FIG. 4 illustrates results from a binding assay showing the binding affinity of an exemplary aptamer (Aptamer ID BTX176881 (SEQ ID NO. 98883)) to the target EpCAM protein at various target concentrations. The aptamer to be tested is fixed to a substrate using a biotin tail and is incubated with various concentrations of target (125, 250 and 500 nM). The test is performed on a surface plasmon resonance machine (SPR). The SPR machine detects association and disassociation of the aptamer and the target. Target is applied until the association and disassociation events are equal, resulting in a plateau of the curve. The equations describing the curve at each concentration can then be used to calculate the KD of the aptamer (see Table 5).
The Biacore 200 control software is programmed with the following conditions: Solution: HBS-EP+Buffer; Number of cycles: 3; Contact time: 120s; Flow rate: 30 μl/min; Dissociation time: 300s; Solution: Glycine-HCl pH 2.5; Contact time: 120s; Flow rate: 20 μl/min; Stabilization period: Os. The binding affinities of these aptamers are then measured using the SPR assay above, or an alternate in vitro assay assessing the aptamer for a desired function.

EpCAM [4] = biological target: T1, EpCAM; experiment: ELONA; standard ELISA plate; conditions: tags: Fc fusion; label: biotin

Chain of PSMA (FOLH1/NAALADase I) (Q04609 44-750, one chain of several): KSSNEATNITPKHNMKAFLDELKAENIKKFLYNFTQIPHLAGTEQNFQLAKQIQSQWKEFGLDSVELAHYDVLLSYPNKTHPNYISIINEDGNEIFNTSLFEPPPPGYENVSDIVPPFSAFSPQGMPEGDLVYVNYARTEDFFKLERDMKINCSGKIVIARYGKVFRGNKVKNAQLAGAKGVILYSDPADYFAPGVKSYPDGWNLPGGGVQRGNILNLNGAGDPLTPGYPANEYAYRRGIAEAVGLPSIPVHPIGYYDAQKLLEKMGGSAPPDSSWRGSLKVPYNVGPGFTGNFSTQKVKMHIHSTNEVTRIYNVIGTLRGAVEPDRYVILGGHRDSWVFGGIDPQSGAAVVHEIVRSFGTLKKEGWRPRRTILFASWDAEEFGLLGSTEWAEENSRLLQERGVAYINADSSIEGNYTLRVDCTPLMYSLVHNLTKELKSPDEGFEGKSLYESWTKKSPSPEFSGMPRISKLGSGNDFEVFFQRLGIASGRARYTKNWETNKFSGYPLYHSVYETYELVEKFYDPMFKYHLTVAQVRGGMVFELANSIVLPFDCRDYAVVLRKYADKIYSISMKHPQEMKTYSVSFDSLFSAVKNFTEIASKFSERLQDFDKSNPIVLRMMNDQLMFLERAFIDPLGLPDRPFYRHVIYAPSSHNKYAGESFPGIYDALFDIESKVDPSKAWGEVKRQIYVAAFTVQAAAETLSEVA

B1: CAR003 (ssDNA)
DNA: ATCCAGAGTGACGCAGCAGTCTTTTCTGATGGACACGTGGTGGTCTAGTATCTGGACACGGTGGCTTAGT
modifications: 3' biotin (CAR003.2_3'-B, same bases as SEQ 230823)
Does B1 bind (EpCAM [1])?
Result: binds

B2: Aptamer 4 (ssDNA)
DNA: CCCCCCGAATCACATGACTTGGGCGGGGGTCG
modifications: 3' tail of 6 thymines and biotin
How did the Kd (EpCAM [2]) turn out when B2 was run?
The Kd was 10.1 nM.

B3: CAR050 (ssDNA)
DNA: ACTAAGCCACCGTGTCCACCCCCCTCTGTCTCTTGTTTCTCTTTTCTATGCTGCGTCACTCTGGAT
modifications: 5' biotin
Does B3 bind (PSMA (FOLH1/NAALADase I))?
Result: binds

B4: BTX187269 (ssDNA)
DNA: CTGTGAGGCGTACTGCGGTGAGCCTCTCATTA
modifications: 3' tail of 6 thymines and biotin
B4 was tested. Which Kd (EpCAM [2]) did it give?
Its Kd is 7.12 nM.

B5: BTX176881 (ssDNA)
DNA: CCGCGCAGATATACAACGTACCTCTGTGCGCA
modifications: 3' tail of 6 thymines and biotin
For B5, which Kd (EpCAM [3]) is on record?
The Kd was 8.4 nM.

B6: CAR016 (ssDNA)
DNA: ACTAAGCCACCGTGTCCAACGTAAGTATATCTGTACAATGCTGCGTCACTCTGGAT
modifications: 5' biotin
Does B6 bind (EpCAM [4])?
Result: binds

B7: CAR051 (ssDNA)
DNA: ACTAAGCCACCGTGTCCAGCCCTATTCCCTCGCTTTCTCCCCTTTTGTTGCTGCGTCACTCTGGAT
modifications: 5' biotin
Does B7 bind (PSMA (FOLH1/NAALADase I))?
Result: binds
